Experiment [1] concerns the target T1, human TIM-3 extracellular domain protein with hFc tag (hTIM-3-hFc) (human, UniProt Q8TDQ0 22-200).
T1 construct: not shown: human IgG Fc fragment (hFc) of the pCpC vector
T1 sequence: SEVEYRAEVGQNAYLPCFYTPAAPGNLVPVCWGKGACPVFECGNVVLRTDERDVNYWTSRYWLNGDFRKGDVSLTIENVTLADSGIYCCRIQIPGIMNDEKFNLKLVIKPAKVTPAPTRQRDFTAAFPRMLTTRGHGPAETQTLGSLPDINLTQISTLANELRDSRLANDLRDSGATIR
Kind of experiment: ELISA, coated human TIM-3 ECD protein, 0.0667 nM antibody. Background: ELISA stands for enzyme-linked immunosorbent assay.

For experiment [2], the target named is T1, human TIM-3 extracellular domain …. Put plainly: ELISA, coated human TIM-3 ECD protein, 6.6667 nM antibody.
Experiment [3] concerns the target T2, murine TIM-3 extracellular domain protein with hFc tag (mTIM-3-hFc) (mouse, UniProt Q8VIM0 29-191).
T2 construct: also called mouse TIM-3 extracellular domain protein; not shown: human IgG Fc fragment (hFc) of the pCpC vector
T2 chain: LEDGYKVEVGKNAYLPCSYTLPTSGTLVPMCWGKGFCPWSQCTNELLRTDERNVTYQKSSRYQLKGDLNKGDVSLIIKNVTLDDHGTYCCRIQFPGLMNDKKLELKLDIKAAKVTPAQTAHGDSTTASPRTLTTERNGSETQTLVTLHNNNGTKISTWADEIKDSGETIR
Put plainly: ELISA, coated mouse TIM-3 ECD protein, 6.6667 nM antibody.

Experiment [4] concerns the target T2, murine TIM-3 extracellular domain …. Kind of experiment: ELISA, coated mouse TIM-3 ECD protein, 66.667 nM antibody.
Experiment [5] concerns the target T3, monkey TIM-3 extracellular domain protein with hFc tag (cTIM-3-hFc) (monkey).
T3 construct: not shown: human IgG Fc fragment (hFc) of the pCpC vector
T3 chain: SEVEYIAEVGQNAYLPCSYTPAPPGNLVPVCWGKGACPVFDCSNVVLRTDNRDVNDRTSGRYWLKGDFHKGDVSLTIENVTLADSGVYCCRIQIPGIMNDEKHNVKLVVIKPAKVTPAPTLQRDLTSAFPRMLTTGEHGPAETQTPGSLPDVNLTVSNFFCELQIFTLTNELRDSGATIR
Kind of experiment: ELISA, coated monkey TIM-3 ECD protein, 0.0007 nM antibody.

B1: 18D2H2 fully human TIM-3 antibody (human IgG4, kappa) (antibody, V domains shown)
VH: EVQLVESGGDLVQPGGSLRLSCAASGFTFSTYWMTWVRQAPGRGLEWVANIKQDGSAKYYVDSVKGRFTLSRDDAKNSLYLQMNSLRAEDTAVYYCARGSNWFDYWGQGTLVTVSS
VL: ETVMTQSPATLSVSPGERATLSCRANQNVYSNLAWYQQKPGQAPRLLIYDASTRATGFPARFSGSGSGTEFTLTISSLQSEDFAVYYCQQYNNWPLTFGGGTKVEIK
For B1, the OD450 came out at 1.57 in experiment [1]; 2.61 in experiment [2]; 0.31 in experiment [3]; 0.81 in experiment [4]; 0.15 in experiment [5].

B2: 34B6D8 fully human TIM-3 antibody (human IgG4, kappa) (antibody, V domains shown)
VH: EVQLVESGGGLVQPGGSLRLSCAASGFTFSTYWMTWVRQAPGKRLEWVANIKQGGGDKYYVDSVKGRFTISTDNAKNSLYLQMNSLRAEDTAVYYCARGSNWFDPWGQGTLVTVSS
VL: EIVMTQSPATLSMSPGERATLSCRASQSVYDNLAWYQQKPGQAPRLLIYGASTRATGIPARFSGSGSGTEFTLTISSLQSEDFALYYCQQYTHWPITFGQGTRLEIK
On to B2, for which the OD450 in experiment [1] was 1.58; in experiment [2] it was 2.99; in experiment [3] it was 0.44; in experiment [4], 1.38; in experiment [5] it was 0.19.

B3: 39E5H1 fully human TIM-3 antibody (human IgG4, kappa) (antibody, V domains shown)
VH: EVQLVESGGGLVQPGGSLRLSCAASGFTFSSYWMSWVRQAPGKGLEWVANIKRGGSERYYVDSVKGRFTISGDNAKNSVYLQMNSLRAEDTAVYYCARGSNWFDPWGQGTLVTVSS
VL: ETVMTQSPAILSVSPGERATLSCRASQSVYSNLAWYQQKLGQAPRLLIYDASTRATGIPARFSGSGSGTEFTLTISSLQSEDFAVYYCQQYNNWPITFGQGTRLEIK
Consider B3, for which the OD450 in experiment [1] was found to be 1.33; in experiment [2], 2.95; in experiment [3], 0.41; in experiment [4] it was 1.28; in experiment [5] it was 0.18.
